The values that follow come from patent publication US20220332804A1 (CSL INNOVATION, published 2022).

What all share (assay): SPR, mAb captured, C2 mutant analyte;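 note: Anti-C2 mAbs captured on goat anti-human IgG Biacore CM5 chips, alanine or serine C2 surface mutants flowed over at 37 °C, double-referenced sensorgrams fitted to a 1:1 binding model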
On the technique in general: Surface plasmon resonance follows binding to a sensor surface in real time, without labels.

For experiment [1], the target named is T1, human C2 H331A (human, UniProt P06681 21-752).
T1 sequence: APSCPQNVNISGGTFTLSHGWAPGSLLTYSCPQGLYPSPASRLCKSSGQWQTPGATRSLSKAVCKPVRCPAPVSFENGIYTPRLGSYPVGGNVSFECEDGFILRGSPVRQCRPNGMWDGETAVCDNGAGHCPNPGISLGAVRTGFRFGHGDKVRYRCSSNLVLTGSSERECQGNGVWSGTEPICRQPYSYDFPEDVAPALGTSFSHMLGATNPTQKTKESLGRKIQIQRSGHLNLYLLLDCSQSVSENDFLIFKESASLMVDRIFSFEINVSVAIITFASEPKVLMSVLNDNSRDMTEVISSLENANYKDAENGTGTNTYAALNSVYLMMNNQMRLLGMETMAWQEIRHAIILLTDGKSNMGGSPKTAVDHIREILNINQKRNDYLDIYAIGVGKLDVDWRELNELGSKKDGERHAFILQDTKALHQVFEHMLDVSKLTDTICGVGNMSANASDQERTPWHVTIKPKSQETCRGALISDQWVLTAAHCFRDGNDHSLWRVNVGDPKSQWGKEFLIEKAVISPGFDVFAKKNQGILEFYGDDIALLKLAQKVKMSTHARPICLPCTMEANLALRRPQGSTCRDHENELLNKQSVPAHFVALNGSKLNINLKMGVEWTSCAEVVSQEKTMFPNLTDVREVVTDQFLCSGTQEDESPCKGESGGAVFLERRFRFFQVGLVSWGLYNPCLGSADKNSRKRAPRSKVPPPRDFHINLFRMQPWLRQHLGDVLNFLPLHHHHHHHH

In experiment [2] the target is T2, human C2 G427A (human, UniProt P06681 21-752).
T2 sequence: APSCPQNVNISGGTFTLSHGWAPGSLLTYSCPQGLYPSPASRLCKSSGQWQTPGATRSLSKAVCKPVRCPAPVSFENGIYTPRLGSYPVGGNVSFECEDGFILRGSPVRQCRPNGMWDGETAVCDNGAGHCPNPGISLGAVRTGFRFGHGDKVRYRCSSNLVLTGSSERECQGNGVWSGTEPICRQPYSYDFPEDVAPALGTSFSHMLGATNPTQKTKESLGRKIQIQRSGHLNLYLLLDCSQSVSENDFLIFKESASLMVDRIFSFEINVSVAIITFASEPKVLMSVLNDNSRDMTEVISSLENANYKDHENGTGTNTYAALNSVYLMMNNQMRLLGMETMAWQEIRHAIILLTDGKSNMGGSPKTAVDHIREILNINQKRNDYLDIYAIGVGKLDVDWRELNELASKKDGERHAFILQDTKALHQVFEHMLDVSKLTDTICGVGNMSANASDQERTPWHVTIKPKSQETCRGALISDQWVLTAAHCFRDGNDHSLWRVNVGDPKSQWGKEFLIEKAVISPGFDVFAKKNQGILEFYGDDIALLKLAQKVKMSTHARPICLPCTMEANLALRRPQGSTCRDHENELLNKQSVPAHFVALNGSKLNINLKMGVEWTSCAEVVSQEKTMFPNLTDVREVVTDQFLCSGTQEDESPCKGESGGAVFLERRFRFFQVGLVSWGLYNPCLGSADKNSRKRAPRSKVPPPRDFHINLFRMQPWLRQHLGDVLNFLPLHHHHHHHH

Experiment [3] addresses T3, human C2 I438A (human, UniProt P06681 21-752).
T3 sequence: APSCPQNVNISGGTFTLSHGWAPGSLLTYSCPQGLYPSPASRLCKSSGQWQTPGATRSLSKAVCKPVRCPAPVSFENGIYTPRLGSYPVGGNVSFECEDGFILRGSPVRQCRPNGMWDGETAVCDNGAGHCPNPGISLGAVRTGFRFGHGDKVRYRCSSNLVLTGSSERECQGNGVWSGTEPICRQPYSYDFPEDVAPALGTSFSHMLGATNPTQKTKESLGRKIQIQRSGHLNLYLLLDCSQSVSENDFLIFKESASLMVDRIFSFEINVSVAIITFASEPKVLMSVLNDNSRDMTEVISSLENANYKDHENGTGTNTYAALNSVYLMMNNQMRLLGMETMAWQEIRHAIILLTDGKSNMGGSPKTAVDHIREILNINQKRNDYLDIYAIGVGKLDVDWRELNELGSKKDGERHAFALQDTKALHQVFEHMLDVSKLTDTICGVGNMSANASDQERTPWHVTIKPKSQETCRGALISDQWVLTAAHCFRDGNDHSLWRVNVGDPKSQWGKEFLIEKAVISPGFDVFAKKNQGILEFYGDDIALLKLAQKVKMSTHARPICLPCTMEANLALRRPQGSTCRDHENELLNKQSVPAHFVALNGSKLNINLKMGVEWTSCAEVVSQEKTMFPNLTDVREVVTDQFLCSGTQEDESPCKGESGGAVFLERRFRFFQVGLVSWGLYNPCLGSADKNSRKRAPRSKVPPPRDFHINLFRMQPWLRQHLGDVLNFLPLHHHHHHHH

Experiment [4] addresses T4, human C2 L620A (human, UniProt P06681 21-752).
T4 sequence: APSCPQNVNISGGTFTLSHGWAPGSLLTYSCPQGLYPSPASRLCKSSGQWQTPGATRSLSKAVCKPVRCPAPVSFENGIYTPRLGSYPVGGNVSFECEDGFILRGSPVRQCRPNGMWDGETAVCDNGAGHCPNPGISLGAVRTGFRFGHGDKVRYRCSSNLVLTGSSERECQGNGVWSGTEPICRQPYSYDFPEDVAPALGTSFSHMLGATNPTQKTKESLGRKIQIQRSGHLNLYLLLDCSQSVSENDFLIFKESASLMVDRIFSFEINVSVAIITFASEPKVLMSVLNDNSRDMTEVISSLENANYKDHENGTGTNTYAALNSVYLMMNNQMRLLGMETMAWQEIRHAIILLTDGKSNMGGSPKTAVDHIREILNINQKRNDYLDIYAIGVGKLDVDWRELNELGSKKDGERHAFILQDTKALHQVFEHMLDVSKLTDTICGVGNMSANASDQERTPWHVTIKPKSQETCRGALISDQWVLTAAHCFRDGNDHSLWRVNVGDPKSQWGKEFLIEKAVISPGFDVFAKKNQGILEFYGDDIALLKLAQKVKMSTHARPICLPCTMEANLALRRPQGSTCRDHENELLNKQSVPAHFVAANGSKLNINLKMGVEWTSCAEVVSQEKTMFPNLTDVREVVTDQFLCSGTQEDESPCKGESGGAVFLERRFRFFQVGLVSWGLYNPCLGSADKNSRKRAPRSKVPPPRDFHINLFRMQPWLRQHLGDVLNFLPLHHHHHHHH

B1: RF16-214 (antibody, V domains shown)
VH: EVQLLESGGGLVQPGGSLRLSCAASGFTFSWYQMMWVRQAPGKGLEWVSRIYPSGGGTAYADSVKGRFTISRDNSKNTLYLQMNSLRAEDTAVYYCARDAGYGDNWGQGTLVTVSS
VL: QSALTQPPSVSVSPGQTASITCSGDKLGEKYASWYQQKAGQSPVMVIYQDRKRPSGIPERFSGSNSGNTATLTISGTQAMDEADYYCQAWDTRAVVFGGGTKLTVLG
In general, Kd refers to a measure of binding affinity in units of concentration. Turning to B1, the binding result in experiment [1] is listed as “no binding”. Further, the equilibrium dissociation constant (Kd) turned out to be 8.8 nM in experiment [2], 30.6 nM in experiment [3] and 30.8 nM in experiment [4].
